In one assay the test system is thymocytes. The assay is described as follows: induction of apoptotic thymocytes (annexin V). The class given is cell-based, mouse. To be noted: 1 μM, 10 hours, 37° C.; data not shown.
The test system of assay [1] is Colo205, SW480 and SW620 cells. Description: in vitro phagocytosis assay, mouse BMDMs with human non-hematopoietic tumor cells. The class given is cell-based. The following applies: BMDMs pretreated with LPS; FIG. 2R. As for the experimental part: In vitro phagocytosis assays. For the microscopy-based assay, 5×10^4 macrophages were seeded overnight in a 24-well tissue culture plate. On the next day, target cells were washed and labeled with 2.5 μM of carboxyfluorescein succinimidyl ester (CFSE), using the CFSE Cell Proliferation Kit (C34554; Life Technologies, Burlington, ON, Canada). After incubating macrophages in serum-free medium for 2 hours, 2×10^5 CFSE-labeled target cells were added to the macrophages, in the presence of anti-CD47 Ab or control IgG (10 μg/mL). After incubation for 2 hours at 37° C., macrophages were extensively washed and imaged with an inverted microscope (Carl Zeiss Axiovert™ S100 TV). The phagocytosis efficiency was calculated as the number of macrophages containing CFSE^+ target cells per 100 macrophages. […] Cells were then stained on ice for 30 minutes with APC conjugated-anti-human Tac (CD25) and PE-conjugated MAb F4/80, and analyzed by flow cytometry. After gating on F4/80^+Tac^− cells (which include macrophages but exclude non-phagocytosed Tac-positive L1210 cells), phagocytosis efficiency was determined as the percentage of F4/80^+Tac^− cells containing CFSE-derived green fluorescence (detected in FL1 channel). […] They were then stained with APC-conjugated anti-F4/80 and analyzed by flow cytometry. […] Phagocytosis was monitored by microscopy. […]

In assay [2] the target is T1, mouse CD11b (integrin alphaM, alpha subunit of Mac-1) (mouse, UniProt P05555 17-1153).
T1 construct: whole, on cells; Together with CD18 it constitutes Mac-1; Endogenous protein recovered from cell lysates; also called Mac-1 (CD11b); CR3 alpha subunit
T1 sequence (P05555 17-1153): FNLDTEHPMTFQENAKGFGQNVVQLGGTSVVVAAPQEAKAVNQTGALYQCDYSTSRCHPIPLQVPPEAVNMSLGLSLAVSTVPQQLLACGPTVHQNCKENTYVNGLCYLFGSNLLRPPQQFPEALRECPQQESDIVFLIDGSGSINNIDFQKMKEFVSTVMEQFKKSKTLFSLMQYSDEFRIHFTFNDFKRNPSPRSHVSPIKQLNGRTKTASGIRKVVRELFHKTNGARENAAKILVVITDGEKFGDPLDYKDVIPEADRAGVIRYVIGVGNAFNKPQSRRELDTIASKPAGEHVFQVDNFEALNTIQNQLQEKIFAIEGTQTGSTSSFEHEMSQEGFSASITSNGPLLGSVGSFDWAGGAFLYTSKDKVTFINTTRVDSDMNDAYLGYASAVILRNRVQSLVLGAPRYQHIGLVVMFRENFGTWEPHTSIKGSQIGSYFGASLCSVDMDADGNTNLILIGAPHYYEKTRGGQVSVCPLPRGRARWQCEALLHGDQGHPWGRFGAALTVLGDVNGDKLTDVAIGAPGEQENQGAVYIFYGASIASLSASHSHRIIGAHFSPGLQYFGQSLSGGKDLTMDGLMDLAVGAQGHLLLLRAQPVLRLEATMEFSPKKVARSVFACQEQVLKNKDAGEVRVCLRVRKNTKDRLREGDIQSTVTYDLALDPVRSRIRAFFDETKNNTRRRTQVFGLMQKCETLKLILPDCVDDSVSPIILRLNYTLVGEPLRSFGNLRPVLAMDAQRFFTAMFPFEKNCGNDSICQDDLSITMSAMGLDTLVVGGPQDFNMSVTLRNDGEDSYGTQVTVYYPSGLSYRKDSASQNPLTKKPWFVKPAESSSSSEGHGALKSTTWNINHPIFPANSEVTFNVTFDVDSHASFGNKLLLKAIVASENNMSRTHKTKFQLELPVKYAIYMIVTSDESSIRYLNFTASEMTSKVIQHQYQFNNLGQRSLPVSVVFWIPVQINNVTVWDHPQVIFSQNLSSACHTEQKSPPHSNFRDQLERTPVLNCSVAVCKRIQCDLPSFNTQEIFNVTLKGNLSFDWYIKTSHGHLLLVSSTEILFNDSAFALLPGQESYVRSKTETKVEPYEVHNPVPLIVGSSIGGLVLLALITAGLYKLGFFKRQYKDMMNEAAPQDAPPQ
The assay is described as follows: anti-FLAG IP from RAW264.7 cells expressing FLAG-SLAMF7, anti-CD11b immunoblot; confocal co-localization. As for the experimental part: (§1) Authenticated cells. (FIG. 9D) Lysates from the mouse macrophage cell line RAW264.7 expressing GFP alone or in combination with a FLAG-tagged version of mouse SLAMF7 (FLAG-SLAMF7) were immunoprecipitated with anti-FLAG. They were then probed by immunoblotting with anti-CD11b (Mac-1) or anti-SLAMF7. Total cell lysates were analyzed in parallel. (FIG. 9E) Co-localization of SLAMF7 and CD11b in RAW264.7 cells expressing GFP alone or with FLAG-SLAMF7 assessed by immunofluorescence. Semi-confluent RAW264.7 cells expressing GFP alone (bottom) or in combination with FLAG-SLAMF7 (top) were fixed and stained with antibodies against FLAG, CD11b (Mac-1) or CD18, as detailed in Example 1. Staining was detected by confocal microscopy. Scale bar, 5 μm. […] (FIG. 9F) As in FIG. 9E, except that only RAW264.7 cells expressing FLAG-SLAMF7 were analyzed and that antibodies coupled to different fluorophores were used. […] (FIG. 9G-A and FIG. 9G-B) RAW264.7 derivatives expressing GFP alone or in combination with FLAG-SLAMF7 were analyzed by flow cytometry, using antibodies directed against FLAG and SLAMF7 (dotted lines). […]
(§2) Immunoprecipitations, mass spectrometry, immunoblots. […] In brief, immunoprecipitated proteins were digested with trypsin (Promega, Madison, Wis.) and analyzed by LC-MS/MS on a LTQ Orbitrap™ Velos (ThermoFisher Scientific, Bremen, Germany) equipped with a Proxeon nanoelectrospray™ ion source. […]
For orientation: A western blot detects proteins with antibodies after separation by electrophoresis.

The target in assay [3] is T1, mouse CD11b (integrin alphaM, alpha …). The assay is described as follows: anti-CD11b immunoprecipitation from WT and CD11b KO BMDM lysates, mass spectrometry. On the procedure:
as §1, §2

Regarding `C[C@@H]1C[C@H]2[C@@H]3CCC4=CC(=O)C=C[C@]4(C)[C@@]3(F)[C@@H](O)C[C@]2(C)[C@@]1(O)C(=O)CO` [dexamethasone], the “cells becoming apoptotic (annexin V-positive)” value with thymocytes is “about 70%”.
Turning to lipopolysaccharide [LPS], the “phagocytosis of non-hematopoietic targets” value in assay [1] is on record as “phagocytosis of non-hematopoietic targets was seen”.

B1: FLAG-tagged version of mouse SLAMF7 (receptor, UniProt Q8BHK6 23-333, looked up)
chain: SGTLKKVAGALDGSVTFTLNITEIKVDYVVWTFNTFFLAMVKKDGVTSQSSNKERIVFPDGLYSMKLSQLKKNDSGAYRAEIYSTSSQASLIQEYVLHVYKHLSRPKVTIDRQSNKNGTCVINLTCSTDQDGENVTYSWKAVGQGDNQFHDGATLSIAWRSGEKDQALTCMARNPVSNSFSTPVFPQKLCEDAATDLTSLRGILYILCFSAVLILFAVLLTIFHTTWIKKGKGCEEDKKRVDRHQEMPDLCPHLEENADYDTIPYTEKRRPEEDAPNTFYSTVQIPKVVKSPSSLPAKPLVPRSLSFENVI
notes: whole, on cells; It was immunoprecipitated with anti-FLAG from RAW264.7 lysates; also called FLAG-SLAMF7; not shown: FLAG tag
Turning to B1, the binding result in assay [2] is “binds”.

B2: mouse CD16 (Fc receptor) (receptor, UniProt P08508 31-261, looked up)
chain: ALPKAVVKLDPPWIQVLKEDMVTLMCEGTHNPGNSSTQWFHNGRSIRSQVQASYTFKATVNDSGEYRCQMEQTRLSDPVDLGVISDWLLLQTPQRVFLEGETITLRCHSWRNKLLNRISFFHNEKSVRYHHYKSNFSIPKANHSHSGDYYCKGSLGSTQHQSKPVTITVQDPATTSSISLVWYHTAFSLVMCLLFAVDTGLYFYVRRNLQTPREYWRKSLSIRKHQAPQDK
notes: whole, on cells
For the molecule B2, the binding result in assay [3] was “no binding”.

B3: mouse CD64 (Fc receptor) (receptor, UniProt P26151 25-404, looked up)
chain: EVVNATKAVITLQPPWVSIFQKENVTLWCEGPHLPGDSSTQWFINGTAVQISTPSYSIPEASFQDSGEYRCQIGSSMPSDPVQLQIHNDWLLLQASRRVLTEGEPLALRCHGWKNKLVYNVVFYRNGKSFQFSSDSEVAILKTNLSHSGIYHCSGTGRHRYTSAGVSITVKELFTTPVLRASVSSPFPEGSLVTLNCETNLLLQRPGLQLHFSFYVGSKILEYRNTSSEYHIARAEREDAGFYWCEVATEDSSVLKRSPELELQVLGPQSSAPVWFHILFYLSVGIMFSLNTVLYVKIHRLQREKKYNLEVPLVSEQGKKANSFQQVRSDGVYEEVTATASQTTPKEAPDGPRSSVGDCGPEQPEPLPPSDSTGAQTSQS
notes: whole, on cells
With B3, the binding result in assay [3] is “no binding”.

For the origin of these results see US20190135921A1, “METHODS OF PREVENTING OR TREATING SLAMF7 POSITIVE AND SLAMF7 NEGATIVE CANCERS” (ADAERATA, LIMITED PARTNERSHIP, priority 2016, published 2019).
